According to patent publication US20240058467A1 (SUTRO BIOPHARMA, published 2024):
Where two headings read alike, the source gives them in different places.

Assays:
Assay in all cases: cell-based or functional assay
[1] = molecular target: T1, ROR1 antigen expressed on ROR1 positive Ntera-2 cells (UniProt Q01973 30-937)
[2] = molecular target: T1, ROR1 antigen expressed on ROR1 positive …; remark: listed apart in the source
[3] = molecular target: T1, ROR1 antigen expressed on ROR1 positive …; remark: listed apart in the source
[4] = molecular target: T1, ROR1 antigen expressed on ROR1 positive …; remark: listed apart in the source

| Binder | NTERA-2 cell killing EC50 [1] | NTERA-2 cell killing Span (%) [1] | NTERA-2 cell killing EC50 [2] | NTERA-2 cell killing Span (%) [2] | NTERA-2 cell killing EC50 [3] | NTERA-2 cell killing Span (%) [3] | NTERA-2 cell killing EC50 [4] | NTERA-2 cell killing Span (%) [4] |
| --- | --- | --- | --- | --- | --- | --- | --- | --- |
| Conjugate 9: D04-Y180/F404/K42/E161-LP3 (antibody, human IgG1, kappa, pAMF at K42 and E161 (printed * in the sequence), linked to LP3; pAMF at Y180 and F404 (printed * in the sequence), linked to LP3) heavy: MEVQLVESGGGLVQPGGSLRLSCAASGFNISDYDIHWVRQAPGKGLEWVGGIDPADGSTDYADSVKGRFTISADTSKNTAYLQMNSLRAEDTAVYYCARDYGVYDYWGQGTLVTVSSASTKGPSVFPLAPSSKSTSGGTAALGCLVKDYFPEPVTVSWNSGALTSGVHTFPAVLQSSGLSLSSVVTVPSSSLGTQTYICNVNHKPSNTKVDKKVEPKSCDKTHTCPPCPAPELLGGPSVFLFPPKPKDTLMISRTPEVTCVVVDVSHEDPEVKFNWYVDGVEVHNAKTKPREEQYNSTYRVVSVLTVLHQDWLNGKEYKCKVSNKALPAPIEKTISKAKGQPREPQVYTLPPSREEMTKNQVSLTCLVKGFYPSDIAVEWESNGQPENNYKTTPPVLDSDGSFLYSKLTVDKSRWQQGNVFSCSVMHEALHNHYTQKSLSLSPGK light: MDIQMTQSPSSLSASVGDRVTITCRASQDVNTAVAWYQQKPGAPKLLIYSASFLYSGVPSRFSGSRSGTDFTLTISSLQPEDFATYYCQQHYTTPPTFGQGTKVEIKRTVAAPSVFIFPPSDEQLKSGTASVVCLLNNFYPREAKVQWKVDNALQSGNSQSVTEQDSKDSTYSLSSTLTLSKADYEKHKVYACEVTHQGLSSPVTKSFNRGEC | 0.119 nM | 63% | 0.027 nM | 94% | – | – | – | – |
| Conjugate 10: D04-Y180/F404/K42/E161-LP4 (antibody, human IgG1, kappa, pAMF at K42 and E161 (printed * in the sequence), linked to LP4; pAMF at Y180 and F404 (printed * in the sequence), linked to LP4) heavy: MEVQLVESGGGLVQPGGSLRLSCAASGFNISDYDIHWVRQAPGKGLEWVGGIDPADGSTDYADSVKGRFTISADTSKNTAYLQMNSLRAEDTAVYYCARDYGVYDYWGQGTLVTVSSASTKGPSVFPLAPSSKSTSGGTAALGCLVKDYFPEPVTVSWNSGALTSGVHTFPAVLQSSGLSLSSVVTVPSSSLGTQTYICNVNHKPSNTKVDKKVEPKSCDKTHTCPPCPAPELLGGPSVFLFPPKPKDTLMISRTPEVTCVVVDVSHEDPEVKFNWYVDGVEVHNAKTKPREEQYNSTYRVVSVLTVLHQDWLNGKEYKCKVSNKALPAPIEKTISKAKGQPREPQVYTLPPSREEMTKNQVSLTCLVKGFYPSDIAVEWESNGQPENNYKTTPPVLDSDGSFLYSKLTVDKSRWQQGNVFSCSVMHEALHNHYTQKSLSLSPGK light: MDIQMTQSPSSLSASVGDRVTITCRASQDVNTAVAWYQQKPGAPKLLIYSASFLYSGVPSRFSGSRSGTDFTLTISSLQPEDFATYYCQQHYTTPPTFGQGTKVEIKRTVAAPSVFIFPPSDEQLKSGTASVVCLLNNFYPREAKVQWKVDNALQSGNSQSVTEQDSKDSTYSLSSTLTLSKADYEKHKVYACEVTHQGLSSPVTKSFNRGEC | 0.003 nM | 96% | 0.004 nM | 77% | 0.013 nM | 89% | 0.019 nM | 86% |
